Results as given in the RNAGym collection of RNA variant scans (doi:10.7554/elife.80360).

B1: CPEB3 Ribozyme (parent)
chain: GGGGGCCACAGCAGAAGCGUUCACGUCGCGGCCCCUGUCAGAUUCUGGUGAAUCUGCGAAUUCUGCUGU

Variants of: B1
Experiment: self-cleavage, relative activity (ratio to wild type); higher = more cleavage; co-transcriptional

With GGGGGCCACAGCAGAAGCGUUCACGUCGCGGCCCCUGUCAGAUUCUGGUGAAACUGCGAAUUCUGCAGU [U53A U67A] as the variant, how does the self-cleavage read?
Its self-cleavage is 0.834.

With GGGGGCCACAGCAGAAGCGUUCACGUCGCGGCCCCUGUCAGAUUCUGGUGAAACUGCGAAUUCUGCGGU [U53A U67G] as the variant, how does the self-cleavage read?
The self-cleavage was 0.938.

Which self-cleavage does the source give for GGGGGCCACAGCAGAAGCGUUCACGUCGCGGCCCCUGUCAGAUUCUGGUGAUUCUGCGAAUGCUGCUGU [A52U U62G] here?
The self-cleavage was 0.82.

For GGGGGCCACAGCAGAAGCGUUCACGUCGCGGCCCCUGUCAGAUUCUGGUGAUUCUGCGAAUACUGCUGU [A52U U62A], which self-cleavage is on record?
Its self-cleavage is 0.829.

For GGGGGCCACAGCAGAAGCGUUCACGUCGCGGCCCCUGUCAGAUUCUGGUGAUUCUGCUAAUUCUGCUGU [A52U G58U], which self-cleavage is on record?
Its self-cleavage is 0.992.

For GGGGGCCACAGCAGAAGCGUUCACGUCGCGGCCCCUGUCAGAUUCUGGUGAUUCUGCCAAUUCUGCUGU [A52U G58C], which self-cleavage is on record?
Its self-cleavage is 0.954.

With GGGGGCCACAGCAGAAGCGUUCACGUCGCGGCCCCUGUCAGAUUCUGGUGAAACUGCGAAUUCCGCUGU [U53A U64C] as the variant, how does the self-cleavage read?
Its self-cleavage is 0.693.

Which self-cleavage does the source give for GGGGGCCACAGCAGAAGCGUUCACGUCGCGGCCCCUGUCAGAUUCUGGUGAAACUGCGAAUUCAGCUGU [U53A U64A] here?
Its self-cleavage is 0.822.

With GGGGGCCACAGCAGAAGCGUUCACGUCGCGGCCCCUGUCAGAUUCUGGUGAAACUGCGAAUUCGGCUGU [U53A U64G] as the variant, how does the self-cleavage read?
The self-cleavage was 0.626.

Which self-cleavage does the source give for GGGGGCCACAGCAGAAGCGUUCACGUCGCGGCCCCUGUCAGAUUCUGGUGAAACUGCCAAUUCUGCUGU [U53A G58C] here?
Its self-cleavage is 0.917.

With GGGGGCCACAGCAGAAGCGUUCACGUCGCGGCCCCUGUCAGAUUCUGGUGAAACUGCAAAUUCUGCUGU [U53A G58A] as the variant, how does the self-cleavage read?
The self-cleavage was 0.919.

Which self-cleavage does the source give for GGGGGCCACAGCAGAAGCGUUCACGUCGCGGCCCCUGUCAGAUUCUGGUGAAACUGCUAAUUCUGCUGU [U53A G58U] here?
Its self-cleavage is 0.944.

For GGGGGCCACAGCAGAAGCGUUCACGUCGCGGCCCCUGUCAGAUUCUGGUGAAACUUCGAAUUCUGCUGU [U53A G56U], which self-cleavage is on record?
The self-cleavage was 0.583.

With GGGGGCCACAGCAGAAGCGUUCACGUCGCGGCCCCUGUCAGAUUCUGGUGAACCUGCGAUUUCUGCUGU [U53C A60U] as the variant, how does the self-cleavage read?
The self-cleavage was 0.397.

For GGGGGCCACAGCAGAAGCGUUCACGUCGCGGCCCCUGUCAGAUUCUGGUGAACCUGCGACUUCUGCUGU [U53C A60C], which self-cleavage is on record?
The self-cleavage was 0.31.

With GGGGGCCACAGCAGAAGCGUUCACGUCGCGGCCCCUGUCAGAUUCUGGUGAACCUGCGAGUUCUGCUGU [U53C A60G] as the variant, how does the self-cleavage read?
The self-cleavage was 0.711.

With GGGGGCCACAGCAGAAGCGUUCACGUCGCGGCCCCUGUCAGAUUCUGGUGAUUCUGCGAAUUGUGCUGU [A52U C63G] as the variant, how does the self-cleavage read?
The self-cleavage was 0.72.

For GGGGGCCACAGCAGAAGCGUUCACGUCGCGGCCCCUGUCAGAUUCUGGUGAUUCUGCGAAUUAUGCUGU [A52U C63A], which self-cleavage is on record?
The self-cleavage was 0.789.

For GGGGGCCACAGCAGAAGCGUUCACGUCGCGGCCCCUGUCAGAUUCUGGUGAAACUGCGAACUCUGCUGU [U53A U61C], which self-cleavage is on record?
Its self-cleavage is 0.583.

For GGGGGCCACAGCAGAAGCGUUCACGUCGCGGCCCCUGUCAGAUUCUGGUGAAACUGCGAAAUCUGCUGU [U53A U61A], which self-cleavage is on record?
The self-cleavage was 0.694.

With GGGGGCCACAGCAGAAGCGUUCACGUCGCGGCCCCUGUCAGAUUCUGGUGAAAGUGCGAAUUCUGCUGU [U53A C54G] as the variant, how does the self-cleavage read?
Its self-cleavage is 0.586.

Which self-cleavage does the source give for GGGGGCCACAGCAGAAGCGUUCACGUCGCGGCCCCUGUCAGAUUCUGGUGAACCUGCGGAUUCUGCUGU [U53C A59G] here?
Its self-cleavage is 0.944.

For GGGGGCCACAGCAGAAGCGUUCACGUCGCGGCCCCUGUCAGAUUCUGGUGAACCUGCGUAUUCUGCUGU [U53C A59U], which self-cleavage is on record?
Its self-cleavage is 0.618.

For GGGGGCCACAGCAGAAGCGUUCACGUCGCGGCCCCUGUCAGAUUCUGGUGAACCUGCGCAUUCUGCUGU [U53C A59C], which self-cleavage is on record?
Its self-cleavage is 0.525.

For GGGGGCCACAGCAGAAGCGUUCACGUCGCGGCCCCUGUCAGAUUCUGGUGAACCUGCGAAUUCUGCUGU [U53C], which self-cleavage is on record?
The self-cleavage was 0.947.

With GGGGGCCACAGCAGAAGCGUUCACGUCGCGGCCCCUGUCAGAUUCUGGUGAAACUGCGAAUUCUGCUGU [U53A] as the variant, how does the self-cleavage read?
The self-cleavage was 0.973.

For GGGGGCCACAGCAGAAGCGUUCACGUCGCGGCCCCUGUCAGAUUCUGGUGAAACUGCGAAUUGUGCUGU [U53A C63G], which self-cleavage is on record?
Its self-cleavage is 0.709.

Which self-cleavage does the source give for GGGGGCCACAGCAGAAGCGUUCACGUCGCGGCCCCUGUCAGAUUCUGGUGAAACUGCGAAUUUUGCUGU [U53A C63U] here?
Its self-cleavage is 0.909.

Which self-cleavage does the source give for GGGGGCCACAGCAGAAGCGUUCACGUCGCGGCCCCUGUCAGAUUCUGGUGAACCUGAGAAUUCUGCUGU [U53C C57A] here?
Its self-cleavage is 0.346.

For GGGGGCCACAGCAGAAGCGUUCACGUCGCGGCCCCUGUCAGAUUCUGGUGAACCUGGGAAUUCUGCUGU [U53C C57G], which self-cleavage is on record?
Its self-cleavage is 0.398.

Which self-cleavage does the source give for GGGGGCCACAGCAGAAGCGUUCACGUCGCGGCCCCUGUCAGAUUCUGGUGAACCUGUGAAUUCUGCUGU [U53C C57U] here?
The self-cleavage was 0.43.

Which self-cleavage does the source give for GGGGGCCACAGCAGAAGCGUUCACGUCGCGGCCCCUGUCAGAUUCUGGUGAUUCUGCGAAUUCUGCUUU [A52U G68U] here?
The self-cleavage was 0.992.

Which self-cleavage does the source give for GGGGGCCACAGCAGAAGCGUUCACGUCGCGGCCCCUGUCAGAUUCUGGUGAUUCUGCGAAUUCUGCUCU [A52U G68C] here?
The self-cleavage was 0.98.

For GGGGGCCACAGCAGAAGCGUUCACGUCGCGGCCCCUGUCAGAUUCUGGUGAAACUGCGAAUUCUGCUGG [U53A U69G], which self-cleavage is on record?
Its self-cleavage is 1.05.

With GGGGGCCACAGCAGAAGCGUUCACGUCGCGGCCCCUGUCAGAUUCUGGUGAAACUGCGAAUUCUGCUGA [U53A U69A] as the variant, how does the self-cleavage read?
Its self-cleavage is 1.01.

For GGGGGCCACAGCAGAAGCGUUCACGUCGCGGCCCCUGUCAGAUUCUGGUGAUUCUGCGAAUUCUGCGGU [A52U U67G], which self-cleavage is on record?
The self-cleavage was 0.987.

Which self-cleavage does the source give for GGGGGCCACAGCAGAAGCGUUCACGUCGCGGCCCCUGUCAGAUUCUGGUGAUUCUGCGAAUUCUGCCGU [A52U U67C] here?
The self-cleavage was 0.915.

For GGGGGCCACAGCAGAAGCGUUCACGUCGCGGCCCCUGUCAGAUUCUGGUGAUUCUGCGAAUUCUGUUGU [A52U C66U], which self-cleavage is on record?
Its self-cleavage is 0.973.

With GGGGGCCACAGCAGAAGCGUUCACGUCGCGGCCCCUGUCAGAUUCUGGUGAUUCUGCGAAUUCUGAUGU [A52U C66A] as the variant, how does the self-cleavage read?
The self-cleavage was 0.701.
